Measured values as given in the supplement of paper PMC9112550, “Optimization of the antimicrobial peptide Bac7 by deep mutational scanning” (BMC Biology, 2022).

Tested on: Escherichia coli TOP10
Experiment: shrunken log2 fold change of peptide-encoding DNA abundance (4.5 h post-induction vs induction); higher = less antimicrobial activity (less host growth inhibition)
Settings: time post-induction: 4.5 h; library: site-saturation at positions 5, 18, 19, 20
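Note: peptides expressed intracellularly from a pBAD plasmid library in pooled LB shake-flask culture, induced with 0.3% L-arabinose, DNA abundance read by NGS, three biological replicates, DESeq2 with apeglm shrinkage.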

Sequence	shrunken log2 fold change
RRIRMRPPRLPRPRPRPRGVPRP	1.23
RRIRNRPPRLPRPRPRPGQLPRP	-0.126
RRIRVRPPRLPRPRPRPAVAPRP	0.266
RRIRARPPRLPRPRPRPAWLPRP	0.597
RRIRERPPRLPRPRPRPMSHPRP	-0.741
RRIRSRPPRLPRPRPRPMENPRP	0.0424
RRIRLRPPRLPRPRPRPPVRPRP	0.426
RRIRQRPPRLPRPRPRPHWQPRP	-0.147
RRIRYRPPRLPRPRPRPQRHPRP	-0.48
RRIRTRPPRLPRPRPRPRRMPRP	0.15
RRIRSRPPRLPRPRPRPRSNPRP	-0.186
RRIRFRPPRLPRPRPRPKYNPRP	-0.978
RRIRTRPPRLPRPRPRPTKMPRP	-0.355
RRIRLRPPRLPRPRPRPFDIPRP	-0.0171
RRIRFRPPRLPRPRPRPTMPPRP	0.0787
RRIRHRPPRLPRPRPRPQRAPRP	0.205
RRIRQRPPRLPRPRPRPYRIPRP	-0.111
RRIRKRPPRLPRPRPRPRKKPRP	0.381
RRIRGRPPRLPRPRPRPRWWPRP	0.667
RRIRKRPPRLPRPRPRPLMPPRP	0.232
RRIRCRPPRLPRPRPRPMYWPRP	0.0082
RRIRPRPPRLPRPRPRPCFNPRP	-0.512
RRIRLRPPRLPRPRPRPYTFPRP	-0.00482
RRIRYRPPRLPRPRPRPHQPPRP	-0.748
RRIRLRPPRLPRPRPRPLHHPRP	-0.533

Sequence	shrunken log2 fold change
RRIRYRPPRLPRPRPRPRIIPRP	-0.457
RRIRERPPRLPRPRPRPGDHPRP	-0.0518
RRIRMRPPRLPRPRPRPYCYPRP	-0.13
RRIRARPPRLPRPRPRPDFKPRP	0.00723
RRIRERPPRLPRPRPRPFMVPRP	-0.599
RRIRIRPPRLPRPRPRPMSDPRP	-0.102
RRIRERPPRLPRPRPRPIDHPRP	-0.379
RRIRTRPPRLPRPRPRPCIFPRP	-0.233
RRIRCRPPRLPRPRPRPDQCPRP	-0.00126
RRIRNRPPRLPRPRPRPFNVPRP	0.109
RRIRMRPPRLPRPRPRPEDCPRP	0.0737
RRIRSRPPRLPRPRPRPYDCPRP	-0.0167
RRIRRRPPRLPRPRPRPWPQPRP	0.101
RRIRTRPPRLPRPRPRPCNIPRP	0.048
RRIRLRPPRLPRPRPRPHRTPRP	-0.0946
RRIRMRPPRLPRPRPRPYIKPRP	-0.86
RRIRIRPPRLPRPRPRPCMIPRP	-0.502
RRIRTRPPRLPRPRPRPSVYPRP	-0.389
RRIRMRPPRLPRPRPRPFWYPRP	-0.0609
RRIRARPPRLPRPRPRPCYRPRP	-0.141
RRIRFRPPRLPRPRPRPNDMPRP	-0.388
RRIRYRPPRLPRPRPRPKMNPRP	-0.616
RRIRRRPPRLPRPRPRPYSFPRP	-0.529
RRIRPRPPRLPRPRPRPEQTPRP	0.0268
RRIRHRPPRLPRPRPRPNPDPRP	-0.0353

Sequence	shrunken log2 fold change
RRIRIRPPRLPRPRPRPNYIPRP	-1.29
RRIRQRPPRLPRPRPRPVANPRP	0.124
RRIRERPPRLPRPRPRPLNTPRP	-1.11
RRIRARPPRLPRPRPRPGYHPRP	-0.14
RRIRKRPPRLPRPRPRPIPWPRP	0.466
RRIRYRPPRLPRPRPRPMCYPRP	-0.399
RRIRVRPPRLPRPRPRPSYPPRP	-0.392
RRIRNRPPRLPRPRPRPDHSPRP	-0.22
RRIRNRPPRLPRPRPRPDGIPRP	0.0081
RRIRNRPPRLPRPRPRPIFHPRP	-0.358
RRIRRRPPRLPRPRPRPCADPRP	0.0637
RRIRDRPPRLPRPRPRPKFMPRP	-0.191
RRIRSRPPRLPRPRPRPFAVPRP	-0.113
RRIRQRPPRLPRPRPRPANDPRP	-0.103
RRIRFRPPRLPRPRPRPRWEPRP	0.025
RRIRYRPPRLPRPRPRPPDPPRP	0.179
RRIRTRPPRLPRPRPRPSLMPRP	0.0356
RRIRGRPPRLPRPRPRPTVGPRP	0.832
RRIRYRPPRLPRPRPRPILPPRP	0.00451
RRIRQRPPRLPRPRPRPGLIPRP	-0.118
RRIRDRPPRLPRPRPRPLKDPRP	-0.225
RRIRWRPPRLPRPRPRPANPPRP	0.165
RRIRHRPPRLPRPRPRPHKSPRP	-0.337
RRIRSRPPRLPRPRPRPHVMPRP	-0.103
RRIRARPPRLPRPRPRPCQDPRP	-0.163

Sequence	shrunken log2 fold change
RRIRERPPRLPRPRPRPQETPRP	0.0209
RRIRTRPPRLPRPRPRPYDQPRP	-0.241
RRIRFRPPRLPRPRPRPAMTPRP	0.00388
RRIRDRPPRLPRPRPRPLRKPRP	1.36
RRIRMRPPRLPRPRPRPVFFPRP	0.207
RRIRHRPPRLPRPRPRPGRHPRP	-0.0683
RRIRRRPPRLPRPRPRPDREPRP	0.0377
RRIRTRPPRLPRPRPRPKSTPRP	0.0437
RRIRQRPPRLPRPRPRPEIRPRP	0.0114
RRIRQRPPRLPRPRPRPGHPPRP	0.0393
RRIRHRPPRLPRPRPRPKANPRP	0.174
RRIRRRPPRLPRPRPRPMCIPRP	-0.182
RRIRSRPPRLPRPRPRPNEDPRP	-0.0395
RRIRVRPPRLPRPRPRPGTIPRP	-0.0277
RRIRFRPPRLPRPRPRPYMAPRP	-0.688
RRIRRRPPRLPRPRPRPWLRPRP	-0.103
RRIRVRPPRLPRPRPRPPMTPRP	0.209
RRIRERPPRLPRPRPRPNSDPRP	-0.142
RRIRTRPPRLPRPRPRPQARPRP	-0.0339
RRIRHRPPRLPRPRPRPMKIPRP	-0.0248
RRIRWRPPRLPRPRPRPEAFPRP	0.488
RRIRPRPPRLPRPRPRPWRMPRP	0.217
RRIRERPPRLPRPRPRPAVGPRP	0.209
RRIRPRPPRLPRPRPRPWIVPRP	-0.197
RRIRMRPPRLPRPRPRPHLLPRP	0.137

Sequence	shrunken log2 fold change
RRIRRRPPRLPRPRPRPKVHPRP	0.153
RRIRVRPPRLPRPRPRPLFDPRP	-0.172
RRIRNRPPRLPRPRPRPWTWPRP	-0.0415
RRIRLRPPRLPRPRPRPYVPPRP	-0.383
RRIRCRPPRLPRPRPRPCMVPRP	-0.587
RRIRGRPPRLPRPRPRPFSYPRP	0.0924
RRIRQRPPRLPRPRPRPAYLPRP	0.0774
RRIRERPPRLPRPRPRPEYNPRP	-0.274
RRIRTRPPRLPRPRPRPWRHPRP	-0.0184
RRIRWRPPRLPRPRPRPMLSPRP	-0.0162
RRIRARPPRLPRPRPRPEWLPRP	1.25
RRIRNRPPRLPRPRPRPENLPRP	0.00699
RRIRFRPPRLPRPRPRPKIDPRP	0.00783
RRIRHRPPRLPRPRPRPLNRPRP	0.0215
RRIRLRPPRLPRPRPRPMNYPRP	-0.0583
RRIRQRPPRLPRPRPRPSKLPRP	-0.401
RRIRGRPPRLPRPRPRPWTSPRP	0.0439
RRIRKRPPRLPRPRPRPQITPRP	-0.0657
RRIRTRPPRLPRPRPRPMRMPRP	0.162
RRIRVRPPRLPRPRPRPDVIPRP	-0.0508
RRIRRRPPRLPRPRPRPSNFPRP	-0.177
RRIRKRPPRLPRPRPRPQIMPRP	-0.103
RRIRERPPRLPRPRPRPMQIPRP	-0.0552
RRIRWRPPRLPRPRPRPWRRPRP	0.117
RRIRLRPPRLPRPRPRPQKFPRP	0.0452

Sequence	shrunken log2 fold change
RRIRLRPPRLPRPRPRPLYMPRP	-0.763
RRIRIRPPRLPRPRPRPYFDPRP	-0.711
RRIRQRPPRLPRPRPRPREHPRP	-0.117
RRIRQRPPRLPRPRPRPMGAPRP	0.132
RRIRERPPRLPRPRPRPLTHPRP	-0.413
RRIRMRPPRLPRPRPRPMTSPRP	0.157
RRIRHRPPRLPRPRPRPKWHPRP	-0.108
RRIRNRPPRLPRPRPRPLLCPRP	0.0225
RRIRRRPPRLPRPRPRPVVEPRP	0.339
RRIRARPPRLPRPRPRPMADPRP	0.357
RRIRERPPRLPRPRPRPEVWPRP	0.4
RRIRERPPRLPRPRPRPDEPPRP	-0.0946
RRIRDRPPRLPRPRPRPVQQPRP	-0.00151
RRIRNRPPRLPRPRPRPINNPRP	-0.652
RRIRTRPPRLPRPRPRPKKDPRP	-0.147
RRIRFRPPRLPRPRPRPDAPPRP	0.421
RRIRDRPPRLPRPRPRPKDSPRP	-0.0525
RRIRNRPPRLPRPRPRPEHAPRP	0.0107
RRIRLRPPRLPRPRPRPVSKPRP	-0.181
RRIRSRPPRLPRPRPRPAAQPRP	0.833
RRIRKRPPRLPRPRPRPRYYPRP	-0.248
RRIRCRPPRLPRPRPRPYEVPRP	-0.0152
RRIRMRPPRLPRPRPRPNIWPRP	0.785
RRIRPRPPRLPRPRPRPAQFPRP	0.272
RRIRDRPPRLPRPRPRPRGTPRP	-0.217
